Columns and labels:
Assay in all cases: Kinase Profiling Assay
Format in all cases: biochemical
Details in all cases: for % activity: 100 μM
[1] = molecular target: STK33(h) (Homo sapiens, UniProt Q9BYT3)
[2] = molecular target: Ret(h) (Homo sapiens, UniProt P07949)
[3] = molecular target: GRK6(h) (Homo sapiens, UniProt P43250)
[4] = molecular target: WNK3(h) (Homo sapiens, UniProt Q9BYP7)
[5] = molecular target: Tie2(Y897S)(h) (Homo sapiens, UniProt Q02763, Y897S)
[6] = molecular target: EphA7(h) (Homo sapiens, UniProt Q15375)
Sequence of EphA7(h) (Q15375 28-998): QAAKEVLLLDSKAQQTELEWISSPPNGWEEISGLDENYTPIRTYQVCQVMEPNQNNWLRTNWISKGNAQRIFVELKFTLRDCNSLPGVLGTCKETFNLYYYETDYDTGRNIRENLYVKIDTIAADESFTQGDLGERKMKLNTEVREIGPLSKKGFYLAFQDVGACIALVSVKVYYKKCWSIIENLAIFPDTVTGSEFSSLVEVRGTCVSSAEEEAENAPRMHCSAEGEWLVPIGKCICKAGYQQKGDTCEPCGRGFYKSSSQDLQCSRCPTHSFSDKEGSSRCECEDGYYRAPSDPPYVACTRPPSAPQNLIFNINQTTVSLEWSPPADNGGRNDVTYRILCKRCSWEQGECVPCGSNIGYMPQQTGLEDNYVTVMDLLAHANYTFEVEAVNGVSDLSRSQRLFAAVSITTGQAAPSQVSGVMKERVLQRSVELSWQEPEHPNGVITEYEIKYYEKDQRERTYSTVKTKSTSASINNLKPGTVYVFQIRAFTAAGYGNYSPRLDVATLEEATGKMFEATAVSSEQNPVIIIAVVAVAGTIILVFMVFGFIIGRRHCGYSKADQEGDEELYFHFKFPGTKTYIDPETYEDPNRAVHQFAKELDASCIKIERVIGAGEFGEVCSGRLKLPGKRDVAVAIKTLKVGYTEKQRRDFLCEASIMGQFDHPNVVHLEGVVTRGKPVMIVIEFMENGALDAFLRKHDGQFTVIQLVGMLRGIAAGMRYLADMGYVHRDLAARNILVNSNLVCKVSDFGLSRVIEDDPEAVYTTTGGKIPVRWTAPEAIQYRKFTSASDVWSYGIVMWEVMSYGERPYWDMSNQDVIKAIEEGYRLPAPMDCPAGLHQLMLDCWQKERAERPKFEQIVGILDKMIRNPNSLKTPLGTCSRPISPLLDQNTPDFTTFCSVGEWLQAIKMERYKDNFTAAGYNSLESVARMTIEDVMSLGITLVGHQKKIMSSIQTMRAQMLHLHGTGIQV

[7] = molecular target: T1, PKG1α(h) (Homo sapiens, UniProt Q13976)
T1 sequence (Q13976 1-671): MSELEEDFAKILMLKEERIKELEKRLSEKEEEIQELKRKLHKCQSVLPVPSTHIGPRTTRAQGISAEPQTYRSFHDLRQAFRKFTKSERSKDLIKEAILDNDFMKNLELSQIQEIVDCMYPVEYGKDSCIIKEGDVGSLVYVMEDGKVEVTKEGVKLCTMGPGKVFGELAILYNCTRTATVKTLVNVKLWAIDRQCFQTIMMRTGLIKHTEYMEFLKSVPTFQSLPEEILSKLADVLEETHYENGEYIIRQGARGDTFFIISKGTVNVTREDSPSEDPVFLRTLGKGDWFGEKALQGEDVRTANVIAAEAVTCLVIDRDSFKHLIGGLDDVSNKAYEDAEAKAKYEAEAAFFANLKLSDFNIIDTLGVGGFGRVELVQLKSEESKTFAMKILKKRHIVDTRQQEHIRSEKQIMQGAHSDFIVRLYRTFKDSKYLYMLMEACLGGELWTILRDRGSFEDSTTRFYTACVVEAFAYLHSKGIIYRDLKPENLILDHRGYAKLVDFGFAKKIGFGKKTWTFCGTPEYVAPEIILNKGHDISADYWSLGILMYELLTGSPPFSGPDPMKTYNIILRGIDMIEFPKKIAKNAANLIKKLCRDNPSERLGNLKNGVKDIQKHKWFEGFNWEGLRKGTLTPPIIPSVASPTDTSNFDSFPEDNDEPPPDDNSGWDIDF

[8] = molecular target: T2, DMPK(h) (Homo sapiens, UniProt Q09013)
T2 sequence (Q09013 1-629): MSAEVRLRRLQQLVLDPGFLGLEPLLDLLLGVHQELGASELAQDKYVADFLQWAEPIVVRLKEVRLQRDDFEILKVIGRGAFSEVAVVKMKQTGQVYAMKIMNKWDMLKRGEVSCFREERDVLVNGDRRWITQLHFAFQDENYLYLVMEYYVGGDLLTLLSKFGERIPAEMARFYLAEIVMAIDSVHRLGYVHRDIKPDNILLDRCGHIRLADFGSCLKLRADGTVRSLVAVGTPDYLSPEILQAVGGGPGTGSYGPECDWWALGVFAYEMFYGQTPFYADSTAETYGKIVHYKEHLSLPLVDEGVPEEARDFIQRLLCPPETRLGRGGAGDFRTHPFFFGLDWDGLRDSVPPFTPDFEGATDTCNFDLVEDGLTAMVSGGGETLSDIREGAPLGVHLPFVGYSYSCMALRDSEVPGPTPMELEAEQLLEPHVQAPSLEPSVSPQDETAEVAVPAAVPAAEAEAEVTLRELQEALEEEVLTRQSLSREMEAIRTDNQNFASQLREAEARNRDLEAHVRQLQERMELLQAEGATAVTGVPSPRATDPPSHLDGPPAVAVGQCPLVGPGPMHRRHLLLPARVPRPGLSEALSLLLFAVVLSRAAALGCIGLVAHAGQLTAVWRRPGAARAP

[9] = molecular target: CHK2(R145W)(h) (Homo sapiens, UniProt O96017, R145W)
[10] = molecular target: T3, Mer(h) (Homo sapiens, UniProt Q12866)
T3 sequence (Q12866 21-999): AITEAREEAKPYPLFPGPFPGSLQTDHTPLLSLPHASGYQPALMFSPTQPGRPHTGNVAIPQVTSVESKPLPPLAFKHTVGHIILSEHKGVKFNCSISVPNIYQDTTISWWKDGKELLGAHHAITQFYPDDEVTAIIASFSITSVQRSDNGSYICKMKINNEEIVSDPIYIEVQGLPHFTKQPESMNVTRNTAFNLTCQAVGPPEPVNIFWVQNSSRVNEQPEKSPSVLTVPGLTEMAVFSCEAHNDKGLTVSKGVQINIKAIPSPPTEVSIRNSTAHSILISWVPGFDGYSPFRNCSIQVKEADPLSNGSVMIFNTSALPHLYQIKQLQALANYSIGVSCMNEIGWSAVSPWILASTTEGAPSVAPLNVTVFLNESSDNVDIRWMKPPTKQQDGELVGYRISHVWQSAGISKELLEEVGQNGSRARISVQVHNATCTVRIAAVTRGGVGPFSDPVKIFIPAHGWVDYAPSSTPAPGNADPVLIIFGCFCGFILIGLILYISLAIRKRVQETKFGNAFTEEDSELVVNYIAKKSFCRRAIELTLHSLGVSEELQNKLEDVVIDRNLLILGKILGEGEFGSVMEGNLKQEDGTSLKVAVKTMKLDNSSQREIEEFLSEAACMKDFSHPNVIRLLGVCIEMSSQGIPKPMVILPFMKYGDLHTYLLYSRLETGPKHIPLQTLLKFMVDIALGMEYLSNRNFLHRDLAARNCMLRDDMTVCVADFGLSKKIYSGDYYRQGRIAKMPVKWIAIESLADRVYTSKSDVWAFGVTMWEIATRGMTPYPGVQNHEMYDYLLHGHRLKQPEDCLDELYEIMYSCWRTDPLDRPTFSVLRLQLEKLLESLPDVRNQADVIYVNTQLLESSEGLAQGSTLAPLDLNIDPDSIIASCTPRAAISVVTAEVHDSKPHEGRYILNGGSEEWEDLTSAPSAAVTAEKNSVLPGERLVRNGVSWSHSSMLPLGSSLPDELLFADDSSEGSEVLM

[11] = molecular target: EGFR(L861Q)(h) (Homo sapiens, UniProt P00533, L861Q)

Sequence of WNK3(h) (Q9BYP7 whole entry): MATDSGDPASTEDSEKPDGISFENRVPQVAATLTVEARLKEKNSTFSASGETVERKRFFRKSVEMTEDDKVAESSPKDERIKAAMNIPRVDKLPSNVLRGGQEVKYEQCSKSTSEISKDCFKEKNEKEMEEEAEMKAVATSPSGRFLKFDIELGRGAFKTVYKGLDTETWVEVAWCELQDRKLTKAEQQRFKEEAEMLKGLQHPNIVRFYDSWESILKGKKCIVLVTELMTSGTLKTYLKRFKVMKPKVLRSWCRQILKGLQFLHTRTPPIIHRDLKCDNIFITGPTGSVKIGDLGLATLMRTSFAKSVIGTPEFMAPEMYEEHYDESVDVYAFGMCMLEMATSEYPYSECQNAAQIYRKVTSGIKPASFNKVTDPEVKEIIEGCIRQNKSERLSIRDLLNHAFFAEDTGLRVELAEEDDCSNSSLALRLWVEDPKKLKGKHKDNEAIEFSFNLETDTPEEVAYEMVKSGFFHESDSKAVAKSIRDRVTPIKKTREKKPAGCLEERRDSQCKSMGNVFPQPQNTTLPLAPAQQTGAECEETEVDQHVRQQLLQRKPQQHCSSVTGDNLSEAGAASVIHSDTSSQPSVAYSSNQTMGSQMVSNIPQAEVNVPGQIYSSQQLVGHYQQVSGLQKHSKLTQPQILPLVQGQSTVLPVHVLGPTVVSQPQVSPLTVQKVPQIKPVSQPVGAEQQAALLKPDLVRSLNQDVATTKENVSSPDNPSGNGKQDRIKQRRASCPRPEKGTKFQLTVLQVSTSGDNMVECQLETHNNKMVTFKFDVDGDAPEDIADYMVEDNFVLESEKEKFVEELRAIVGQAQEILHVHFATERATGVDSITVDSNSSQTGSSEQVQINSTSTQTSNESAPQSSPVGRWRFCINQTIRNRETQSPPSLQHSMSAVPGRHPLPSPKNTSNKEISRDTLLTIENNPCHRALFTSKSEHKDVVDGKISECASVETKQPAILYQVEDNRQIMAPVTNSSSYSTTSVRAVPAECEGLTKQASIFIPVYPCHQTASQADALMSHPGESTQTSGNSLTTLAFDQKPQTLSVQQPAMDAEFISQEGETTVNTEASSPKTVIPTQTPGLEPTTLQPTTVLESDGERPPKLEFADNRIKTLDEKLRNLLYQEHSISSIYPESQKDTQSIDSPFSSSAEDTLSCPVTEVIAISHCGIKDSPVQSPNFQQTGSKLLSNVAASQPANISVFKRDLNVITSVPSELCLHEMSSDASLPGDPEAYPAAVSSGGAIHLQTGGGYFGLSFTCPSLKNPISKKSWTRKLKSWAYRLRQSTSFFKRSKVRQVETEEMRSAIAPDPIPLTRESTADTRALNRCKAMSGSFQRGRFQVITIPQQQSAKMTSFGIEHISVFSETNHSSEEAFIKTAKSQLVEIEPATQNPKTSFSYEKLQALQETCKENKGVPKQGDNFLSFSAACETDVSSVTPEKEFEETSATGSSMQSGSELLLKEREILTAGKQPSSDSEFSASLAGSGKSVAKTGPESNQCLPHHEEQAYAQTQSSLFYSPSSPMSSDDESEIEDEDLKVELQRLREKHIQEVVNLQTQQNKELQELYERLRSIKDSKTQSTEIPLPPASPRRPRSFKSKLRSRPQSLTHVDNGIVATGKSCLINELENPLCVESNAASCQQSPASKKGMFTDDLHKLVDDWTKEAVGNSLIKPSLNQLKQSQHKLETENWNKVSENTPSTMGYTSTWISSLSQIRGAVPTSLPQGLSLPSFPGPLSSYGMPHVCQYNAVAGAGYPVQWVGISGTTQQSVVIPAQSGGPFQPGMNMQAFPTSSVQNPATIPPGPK
Sequence of STK33(h) (Q9BYT3 whole entry): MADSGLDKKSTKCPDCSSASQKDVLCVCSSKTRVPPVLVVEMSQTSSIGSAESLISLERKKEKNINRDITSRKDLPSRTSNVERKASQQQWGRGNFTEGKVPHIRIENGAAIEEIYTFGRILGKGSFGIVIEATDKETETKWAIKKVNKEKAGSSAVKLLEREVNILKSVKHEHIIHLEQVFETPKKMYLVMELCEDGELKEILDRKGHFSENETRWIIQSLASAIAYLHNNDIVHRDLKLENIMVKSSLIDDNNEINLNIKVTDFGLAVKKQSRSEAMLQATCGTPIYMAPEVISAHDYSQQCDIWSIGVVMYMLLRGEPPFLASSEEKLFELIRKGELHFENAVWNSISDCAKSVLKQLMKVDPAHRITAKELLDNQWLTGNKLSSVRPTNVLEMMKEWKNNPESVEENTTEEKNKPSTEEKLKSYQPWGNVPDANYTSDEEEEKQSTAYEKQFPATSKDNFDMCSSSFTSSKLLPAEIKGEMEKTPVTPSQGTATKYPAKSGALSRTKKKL
Sequence of GRK6(h) (P43250 whole entry): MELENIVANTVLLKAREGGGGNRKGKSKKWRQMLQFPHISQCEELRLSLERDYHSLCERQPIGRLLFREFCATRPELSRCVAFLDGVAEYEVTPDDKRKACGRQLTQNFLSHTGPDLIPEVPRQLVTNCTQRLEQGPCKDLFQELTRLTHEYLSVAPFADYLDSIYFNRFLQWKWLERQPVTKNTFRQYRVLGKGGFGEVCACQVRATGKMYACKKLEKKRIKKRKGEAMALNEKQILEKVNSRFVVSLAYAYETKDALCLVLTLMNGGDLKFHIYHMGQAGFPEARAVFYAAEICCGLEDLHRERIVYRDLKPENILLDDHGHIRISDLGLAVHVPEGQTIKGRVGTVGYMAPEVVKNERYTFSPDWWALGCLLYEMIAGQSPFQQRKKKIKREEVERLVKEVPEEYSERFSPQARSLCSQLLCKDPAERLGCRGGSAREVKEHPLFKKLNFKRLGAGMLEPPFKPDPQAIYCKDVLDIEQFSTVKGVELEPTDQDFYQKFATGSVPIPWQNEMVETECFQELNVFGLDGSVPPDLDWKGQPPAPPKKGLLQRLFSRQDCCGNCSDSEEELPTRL
Sequence of Tie2(Y897S)(h) (Q02763 23-1124 Y897S): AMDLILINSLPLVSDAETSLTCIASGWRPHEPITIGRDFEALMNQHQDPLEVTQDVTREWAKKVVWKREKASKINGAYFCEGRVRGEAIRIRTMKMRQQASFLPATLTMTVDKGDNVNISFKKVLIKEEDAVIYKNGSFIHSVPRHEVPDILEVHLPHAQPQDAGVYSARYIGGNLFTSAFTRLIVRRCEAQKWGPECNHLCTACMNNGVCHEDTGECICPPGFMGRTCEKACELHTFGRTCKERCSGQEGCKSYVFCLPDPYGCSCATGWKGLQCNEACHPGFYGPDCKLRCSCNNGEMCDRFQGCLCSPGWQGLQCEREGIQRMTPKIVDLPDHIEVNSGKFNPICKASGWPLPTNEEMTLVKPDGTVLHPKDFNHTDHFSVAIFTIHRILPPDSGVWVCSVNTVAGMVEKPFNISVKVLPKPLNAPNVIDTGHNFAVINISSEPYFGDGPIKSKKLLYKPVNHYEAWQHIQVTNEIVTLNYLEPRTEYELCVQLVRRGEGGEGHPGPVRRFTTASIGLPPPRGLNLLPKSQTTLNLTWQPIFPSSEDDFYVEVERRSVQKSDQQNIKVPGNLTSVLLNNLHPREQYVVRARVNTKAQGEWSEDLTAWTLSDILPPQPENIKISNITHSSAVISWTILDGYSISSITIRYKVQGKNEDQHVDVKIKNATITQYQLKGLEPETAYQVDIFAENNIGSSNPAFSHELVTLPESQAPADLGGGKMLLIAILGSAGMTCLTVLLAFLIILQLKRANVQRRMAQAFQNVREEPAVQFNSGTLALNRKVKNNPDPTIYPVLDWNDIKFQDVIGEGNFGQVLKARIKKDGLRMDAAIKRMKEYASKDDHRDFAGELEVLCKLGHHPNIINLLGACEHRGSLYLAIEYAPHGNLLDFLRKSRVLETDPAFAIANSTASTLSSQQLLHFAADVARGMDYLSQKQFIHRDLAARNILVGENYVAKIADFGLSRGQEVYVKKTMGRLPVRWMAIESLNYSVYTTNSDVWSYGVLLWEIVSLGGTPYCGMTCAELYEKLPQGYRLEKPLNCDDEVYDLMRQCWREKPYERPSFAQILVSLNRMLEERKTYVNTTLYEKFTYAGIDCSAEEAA

| Substance | % activity [1] [%] | % activity [2] [%] | % activity [3] [%] | % activity [4] [%] | % activity [5] [%] | % activity [6] [%] | % activity [7] [%] | % activity [8] [%] | % activity [9] [%] | % activity [10] [%] | % activity [11] [%] | other results |
| --- | --- | --- | --- | --- | --- | --- | --- | --- | --- | --- | --- | --- |
| H-YARAAARQARAKALARQLGVAA-OH [MMI-0100] | – | – | – | – | – | – | – | – | – | – | – | activity at 100 µM [1]: 99%; activity at 100 µM [2]: 108%; activity at 100 µM [3]: 131%; activity at 100 µM [4]: 100%; activity at 100 µM [5]: 99%; activity at 100 µM [6]: 193%; activity at 100 µM [7]: 82%; activity at 100 µM [8]: 60%; activity at 100 µM [9]: 97%; activity at 100 µM [10]: 47%; activity at 100 µM [11]: 53% |
| HRRIKAWLKKIKALARQLGVAA (Mammalian) [MMI-0500] | 16 | 174 | 174 | 9 | 80 | 189 | 25 | 12 | 3 | 17 | 15 | – |
| YARAAARQARAKALNRQLGVA (Mammalian) [MMI-0200] | 98 | 96 | 132 | 97 | 85 | 220 | 70 | 66 | 81 | 90 | 74 | – |
